Reference: patent publication US20110166062A1 (INDIANA UNIVERSITY RESEARCH AND TECHNOLOGY, published 2011)
*1 amine or outer side, *2 acyl side, *3 side chain or, on linkers, in order; H or OH if unused. Bridges are numbered along the chain shown (N, C = ends). Primed or numbered codes have the meaning given here. Where no end group is shown, it is not given here. Side-chain parts run from the residue outwards. [ ]: non-standard residue; d: D form. The star is where a group is joined. Cys(PEG 40 kDa) = Cys with a 40 kDa PEG covalently attached to its side chain (alpha amino acetyl-capped, Ac); PEG 40 kDa″ = polyethylene glycol of 40 kDa covalently attached to the side chain; γGlu = O=C(O)[C@H](CCC(=O)[*:2])N[*:1]; Palmitoyl = CCCCCCCCCCCCCCCC(=O)*; Myristoyl = CCCCCCCCCCCCCC(=O)*; PEG = not defined here; Aib = CC(C)(N)C(=O)O

T1: GIP receptor (UniProt P48546 22-466)
T1 sequence (looked up): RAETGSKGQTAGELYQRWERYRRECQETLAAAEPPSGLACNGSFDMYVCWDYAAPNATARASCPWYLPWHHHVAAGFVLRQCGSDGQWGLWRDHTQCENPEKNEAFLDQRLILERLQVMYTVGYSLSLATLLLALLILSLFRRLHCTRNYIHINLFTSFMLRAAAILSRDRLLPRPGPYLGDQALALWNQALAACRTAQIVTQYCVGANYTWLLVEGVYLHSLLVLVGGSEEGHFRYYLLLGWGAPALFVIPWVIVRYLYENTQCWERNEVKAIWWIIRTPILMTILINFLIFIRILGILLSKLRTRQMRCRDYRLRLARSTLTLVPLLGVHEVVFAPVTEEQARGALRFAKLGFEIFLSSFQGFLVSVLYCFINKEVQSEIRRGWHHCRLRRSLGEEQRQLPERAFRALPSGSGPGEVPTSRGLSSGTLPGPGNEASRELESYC

T2: GIP receptor (UniProt P48546 22-466)
T2 sequence (looked up): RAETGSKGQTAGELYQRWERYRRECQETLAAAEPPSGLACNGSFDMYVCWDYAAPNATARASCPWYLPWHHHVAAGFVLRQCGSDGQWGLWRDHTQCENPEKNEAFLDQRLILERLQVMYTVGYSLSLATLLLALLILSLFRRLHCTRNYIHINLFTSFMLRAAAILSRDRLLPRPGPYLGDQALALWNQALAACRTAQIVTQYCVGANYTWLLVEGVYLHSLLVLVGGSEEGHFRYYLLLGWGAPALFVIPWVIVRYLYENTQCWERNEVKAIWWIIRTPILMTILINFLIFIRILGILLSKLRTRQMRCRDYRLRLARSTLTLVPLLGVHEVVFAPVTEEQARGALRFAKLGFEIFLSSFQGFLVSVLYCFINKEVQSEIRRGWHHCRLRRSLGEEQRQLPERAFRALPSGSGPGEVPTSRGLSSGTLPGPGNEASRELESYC


How the values were obtained:
Experiment in all cases: cell-based or functional assay
GLP-1 receptor [1] = target: GLP-1 receptor (UniProt P43220 24-463, limits assumed)
glucagon receptor [2] = target: glucagon receptor (UniProt P47871 26-477, limits assumed)
Target sequence in this assay (P47871 26-477 limits assumed): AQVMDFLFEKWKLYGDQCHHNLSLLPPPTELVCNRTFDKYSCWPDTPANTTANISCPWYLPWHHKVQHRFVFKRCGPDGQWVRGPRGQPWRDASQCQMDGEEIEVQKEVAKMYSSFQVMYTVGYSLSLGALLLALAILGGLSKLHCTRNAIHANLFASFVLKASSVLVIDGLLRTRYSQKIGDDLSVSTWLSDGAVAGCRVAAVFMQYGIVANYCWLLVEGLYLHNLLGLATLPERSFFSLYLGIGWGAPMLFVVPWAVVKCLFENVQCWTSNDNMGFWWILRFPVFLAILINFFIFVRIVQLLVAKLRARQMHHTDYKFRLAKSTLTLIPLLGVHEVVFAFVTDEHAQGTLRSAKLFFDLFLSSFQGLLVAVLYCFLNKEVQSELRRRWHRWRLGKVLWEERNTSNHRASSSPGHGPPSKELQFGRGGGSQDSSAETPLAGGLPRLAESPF

GIP receptor [3] = target: T1, GIP receptor
GIP receptor [4] = target: T2, GIP receptor; remark: listed apart in the source
GLP-1 receptor [5] = target: GLP-1 receptor (UniProt P43220 24-463, limits assumed); remark: listed apart in the source
glucagon receptor [6] = target: glucagon receptor (UniProt P47871 26-477, limits assumed); remark: listed apart in the source
Target sequence in this assay (P47871 26-477 limits assumed): as above

Binder	EC50, nM; GLP-1 Receptor (GLP-1 receptor [1])	relative activity; GLP-1 Receptor (GLP-1 receptor [1])	EC50, nM; Glucagon Receptor (glucagon receptor [2])	relative activity; Glucagon Receptor (glucagon receptor [2])	EC50, nM; GIP Receptor (GIP receptor [3])	relative activity; GIP Receptor (GIP receptor [3])	EC50 (GIP receptor [4])	relative activity (GIP receptor [4])	EC50 (GLP-1 receptor [5])	relative activity (GLP-1 receptor [5])	EC50 (glucagon receptor [6])	relative activity (glucagon receptor [6])
Y[Aib]QGTFTSDYSIYLDKQAA[Aib]EFVNWLMNGGPSSGAPPPSK-NH2 (N-terminus assumed; SMILES CC[C@H](C)[C@H](NC(=O)[C@H](CO)NC(=O)[C@H](Cc1ccc(O)cc1)NC(=O)[C@H](CC(=O)O)NC(=O)[C@H](CO)NC(=O)[C@@H](NC(=O)[C@H](Cc1ccccc1)NC(=O)[C@@H](NC(=O)CNC(=O)[C@H](CCC(N)=O)NC(=O)C(C)(C)NC(=O)[C@@H](N)Cc1ccc(O)cc1)[C@@H](C)O)[C@@H](C)O)C(=O)N[C@@H](Cc1ccc(O)cc1)C(=O)N[C@@H](CC(C)C)C(=O)N[C@@H](CC(=O)O)C(=O)N[C@@H](CCCCN)C(=O)N[C@@H](CCC(N)=O)C(=O)N[C@@H](C)C(=O)N[C@@H](C)C(=O)NC(C)(C)C(=O)N[C@@H](CCC(=O)O)C(=O)N[C@@H](Cc1ccccc1)C(=O)N[C@H](C(=O)N[C@@H](CC(N)=O)C(=O)N[C@@H](Cc1c[nH]c2ccccc12)C(=O)N[C@@H](CC(C)C)C(=O)N[C@@H](CCSC)C(=O)N[C@@H](CC(N)=O)C(=O)NCC(=O)NCC(=O)N1CCC[C@H]1C(=O)N[C@@H](CO)C(=O)N[C@@H](CO)C(=O)NCC(=O)N[C@@H](C)C(=O)N1CCC[C@H]1C(=O)N1CCC[C@H]1C(=O)N1CCC[C@H]1C(=O)N[C@@H](CO)C(=O)N[C@@H](CCCCN)C(N)=O)C(C)C) [mt-356]	0.0048 nM	224%	0.0869 nM	126%	0.053 nM	25.7%	–	–	–	–	–	–
Y[Aib]QGTFISDYSIYLDKQAA[Aib]EFVNWLLAGGPSSGAPPPSK-NH2 (N-terminus assumed; SMILES CC[C@H](C)[C@H](NC(=O)[C@H](CO)NC(=O)[C@H](Cc1ccc(O)cc1)NC(=O)[C@H](CC(=O)O)NC(=O)[C@H](CO)NC(=O)[C@@H](NC(=O)[C@H](Cc1ccccc1)NC(=O)[C@@H](NC(=O)CNC(=O)[C@H](CCC(N)=O)NC(=O)C(C)(C)NC(=O)[C@@H](N)Cc1ccc(O)cc1)[C@@H](C)O)[C@@H](C)CC)C(=O)N[C@@H](Cc1ccc(O)cc1)C(=O)N[C@@H](CC(C)C)C(=O)N[C@@H](CC(=O)O)C(=O)N[C@@H](CCCCN)C(=O)N[C@@H](CCC(N)=O)C(=O)N[C@@H](C)C(=O)N[C@@H](C)C(=O)NC(C)(C)C(=O)N[C@@H](CCC(=O)O)C(=O)N[C@@H](Cc1ccccc1)C(=O)N[C@H](C(=O)N[C@@H](CC(N)=O)C(=O)N[C@@H](Cc1c[nH]c2ccccc12)C(=O)N[C@@H](CC(C)C)C(=O)N[C@@H](CC(C)C)C(=O)N[C@@H](C)C(=O)NCC(=O)NCC(=O)N1CCC[C@H]1C(=O)N[C@@H](CO)C(=O)N[C@@H](CO)C(=O)NCC(=O)N[C@@H](C)C(=O)N1CCC[C@H]1C(=O)N1CCC[C@H]1C(=O)N1CCC[C@H]1C(=O)N[C@@H](CO)C(=O)N[C@@H](CCCCN)C(N)=O)C(C)C) [mt-357]	1.25 nM	0.86%	0.042 nM	261%	0.0066 nM	206%	–	–	–	–	–	–
Y[Aib]QGTFISDYSIYLDKQAA[Aib]EFVNWLLAGGPSSGAPPPSK(Palmitoyl)-NH2 (N-terminus assumed; SMILES CCCCCCCCCCCCCCCC(=O)NCCCC[C@H](NC(=O)[C@H](CO)NC(=O)[C@@H]1CCCN1C(=O)[C@@H]1CCCN1C(=O)[C@@H]1CCCN1C(=O)[C@H](C)NC(=O)CNC(=O)[C@H](CO)NC(=O)[C@H](CO)NC(=O)[C@@H]1CCCN1C(=O)CNC(=O)CNC(=O)[C@H](C)NC(=O)[C@H](CC(C)C)NC(=O)[C@H](CC(C)C)NC(=O)[C@H](Cc1c[nH]c2ccccc12)NC(=O)[C@H](CC(N)=O)NC(=O)[C@@H](NC(=O)[C@H](Cc1ccccc1)NC(=O)[C@H](CCC(=O)O)NC(=O)C(C)(C)NC(=O)[C@H](C)NC(=O)[C@H](C)NC(=O)[C@H](CCC(N)=O)NC(=O)[C@H](CCCCN)NC(=O)[C@H](CC(=O)O)NC(=O)[C@H](CC(C)C)NC(=O)[C@H](Cc1ccc(O)cc1)NC(=O)[C@@H](NC(=O)[C@H](CO)NC(=O)[C@H](Cc1ccc(O)cc1)NC(=O)[C@H](CC(=O)O)NC(=O)[C@H](CO)NC(=O)[C@@H](NC(=O)[C@H](Cc1ccccc1)NC(=O)[C@@H](NC(=O)CNC(=O)[C@H](CCC(N)=O)NC(=O)C(C)(C)NC(=O)[C@@H](N)Cc1ccc(O)cc1)[C@@H](C)O)[C@@H](C)CC)[C@@H](C)CC)C(C)C)C(N)=O) [mt-358]	0.083 nM	13%	0.0087 nM	1270%	0.0045 nM	306%	–	–	–	–	–	–
Y[Aib]EGTFTSDYSIYLDKQAA[Aib]EFVNWLLAGGPSSGAPPPSK([γGlu-γGlu-Palmitoyl])-NH2 [mt-367]	0.0039 nM	–	0.82 nM	–	0.0014 nM	–	–	–	–	–	–	–
Y[Aib]EGTFTSDYSIYLDKQAA[Aib]EFVNWLLAGGPSSGAPPPSK(Myristoyl)C-NH2 (also: homodimer: two monomers linked by a disulfide bond between their C-terminal Cys41 residues) [mt-354]	0.0088 nM	137%	2.61 nM	1.45%	0.0046 nM	91.7%	–	–	–	–	–	–
Y[Aib]QGTFTSDYSIYLDEQAAKEFVNWLLAGGPSSGAPPPSK([Ala-Cys(PEG 40 kDa)-Ac])-NH2 (lactam 16-20) [mt-225]	0.098 nM	–	2.71 nM	–	1.9 nM	–	–	–	–	–	–	–
Y[Aib]EGTFTSDYSIYLDEQAAKEFVNWLLAGGPSSGAPPPSC(PEG)-NH2 (lactam 16-20; reading uncertain; also: PEG on Cys40 via thioether from haloacetyl) [mt-294]	0.0608 nM	12.7%	230 nM	0.01%	0.373 nM	2.95%	–	–	–	–	–	–
Y[Aib]QGTFTSDYSIYLD[Aib]QAAKEFVNWLLAGGPSSGAPPPSC-NH2 (N-terminus assumed; SMILES CC[C@H](C)[C@H](NC(=O)[C@H](CO)NC(=O)[C@H](Cc1ccc(O)cc1)NC(=O)[C@H](CC(=O)O)NC(=O)[C@H](CO)NC(=O)[C@@H](NC(=O)[C@H](Cc1ccccc1)NC(=O)[C@@H](NC(=O)CNC(=O)[C@H](CCC(N)=O)NC(=O)C(C)(C)NC(=O)[C@@H](N)Cc1ccc(O)cc1)[C@@H](C)O)[C@@H](C)O)C(=O)N[C@@H](Cc1ccc(O)cc1)C(=O)N[C@@H](CC(C)C)C(=O)N[C@@H](CC(=O)O)C(=O)NC(C)(C)C(=O)N[C@@H](CCC(N)=O)C(=O)N[C@@H](C)C(=O)N[C@@H](C)C(=O)N[C@@H](CCCCN)C(=O)N[C@@H](CCC(=O)O)C(=O)N[C@@H](Cc1ccccc1)C(=O)N[C@H](C(=O)N[C@@H](CC(N)=O)C(=O)N[C@@H](Cc1c[nH]c2ccccc12)C(=O)N[C@@H](CC(C)C)C(=O)N[C@@H](CC(C)C)C(=O)N[C@@H](C)C(=O)NCC(=O)NCC(=O)N1CCC[C@H]1C(=O)N[C@@H](CO)C(=O)N[C@@H](CO)C(=O)NCC(=O)N[C@@H](C)C(=O)N1CCC[C@H]1C(=O)N1CCC[C@H]1C(=O)N1CCC[C@H]1C(=O)N[C@@H](CO)C(=O)N[C@@H](CS)C(N)=O)C(C)C) [mt-241]	–	–	–	–	–	–	0.252 nM	4.37%	0.023 nM	130%	2.84 nM	3.73%
Y[Aib]QGTFTSDYSIYLD[Aib]QAAKEFVNWLLAGGPSSGAPPPSC(PEG 40 kDa″)-NH2 [mt-248]	–	–	–	–	–	–	3.23 nM	0.53%	0.103 nM	9.71%	16.7 nM	0.37%
